Measurements taken from article PMC2173478.

Target: cytochrome c
Assay: SEC

**Q.** With cytochrome c (natural protein) as the substance, how does the stoichiometry N read?
**A.** 2
